Sequences and labels used below:
B1: DXS2 probe (dsDNA)
DNA 1: TAAATCCTGACATTTGAATAGTATATTAAATCCTGACATTTGAATAGTATAT
DNA 2: ATATACTATTCAAATGTCAGGATTTAATATACTATTCAAATGTCAGGATTTA
B2: CYP76AH1 probe (dsDNA)
DNA 1: TATAATAGAACATTTGGGCGATGCTATATAATAGAACATTTGGGCGATGCTA
DNA 2: TAGCATCGCCCAAATGTTCTATTATATAGCATCGCCCAAATGTTCTATTATA
B3: KSL1 probe (dsDNA)
DNA 1: TGCATCATCTCATTTGGAGTTTAAAATGCATCATCTCATTTGGAGTTTAAAA
DNA 2: TTTTAAACTCCAAATGAGATGATGCATTTTAAACTCCAAATGAGATGATGCA
B4: CPS1 probe (dsDNA)
DNA 1: AATCATTTTTCATTTGACTGCCAAGGTAATCATTTTTCATTTGACTGCCAAGGT
DNA 2: ACCTTGGCAGTCAAATGAAAAATGATTACCTTGGCAGTCAAATGAAAAATGATT

The source of these data is paper PMC13031064.

The target of this data set is bHLH130-His (SmbHLH130) (Salvia miltiorrhiza, UniProt A0A0H3Y8V8 1-394). Nature of the data set: EMSA.
Regarding B1, the binding result is “binds”.

As to B2, the binding result is “binds”.

On to B3, for which the binding result is given as “binds”.

As for B4, the binding result was “binds”.
